From patent US20110044986A1 (Amgen, published 2011)

What was measured:
[1] = target: T1, human Aβ40 fibrils (human); assay: BIAcore, fibrils immobilized, antibody injected
T1 construct: Fibrillar aggregate of the 40-residue peptide prepared in vitro; also called Fibrillar Aβ40; Aβ40 amyloid fibrils
Experimental: (§1) Preparation of Biacore Chip Surfaces: Immobilization of Proteins to a BIAcore sensor chip (CM5) was performed according to manufacturer's instructions. Briefly, carboxyl groups on the sensor chip surfaces were activated by injecting 60 μL of a mixture containing 0.2 M N-ethyl-N′-(dimethylaminopropyl) carbodiimide (EDC) and 0.05 M N-hydroxysuccinimide (NHS). Specific surfaces were obtained by injecting rProtein G (Pierce), goat anti-mouse Fc (Jackson Immuno Research Lab) or Aβ aggregates diluted in 10 mM acetate, pH 4.0 at concentrations between 5 and 20 μg/mL. Excess reactive groups on the surfaces were deactivated by injecting 60 μL of 1 M ethanolamine. […] A blank, mock-coupled reference surface was also prepared on the sensor chips for background subtraction.
(§2) Kinetic analysis of antibodies binding to immobilized Aβ fibrils: Avidity measurements to Aβ fibrils were made by immobilizing amyloid fibrils on the sensor chip surface followed by injection of antibody solutions over the surface, and injection of antibody solutions over a blank surface for background subtraction. Antibodies were diluted in PBS+0.005% P-20+0.1 mg/mL BSA at concentrations varying from 100 nM to 0.2 nM.

[2] = target: T2, human Aβ42 fibrils (human); assay: BIAcore, fibrils immobilized, antibody injected
T2 construct: Fibrillar aggregate of the 42-residue peptide prepared in vitro; also called Fibrillar Aβ42; Aβ42 amyloid fibrils
T2 sequence (peptide, as listed by the source): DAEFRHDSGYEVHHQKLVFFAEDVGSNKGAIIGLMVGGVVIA
Experimental: as §1, §2

[3] = target: amyloid plaques in unfixed Tg2576 mouse brain sections (human, UniProt P05067 672-713, limits assumed); assay: cell-based or functional assay
[4] = target: T3, Aβ42 oligomers (human); assay: immunoprecipitation / Western blot
T3 construct: Soluble oligomers prepared from Aβ42 peptide in Ham's F-12; dimer, trimer and tetramer were seen on the blot; also called soluble, oligomeric species of Aβ42; Aβ42 dimer, trimer, and tetramer

[5] = target: T1, human Aβ40 fibrils; assay: ELISA, fibrils dried on plate, europium TRF
Experimental: (§3) The fibrils (Aβ or collagen) were diluted to 10 μg/ml in water and mixed thoroughly. The solution was aliquoted into the wells of a microtiter plate (Immulon-2; VWR; Cat # 62404-972) at 50 μl per well (resulting in 0.5 μg fibrils/well final). The plate was dried overnight by being placed uncovered in a 37° C. incubator.
(§4) The wells were blocked with 200 μl of blocking solution and incubated for ≧1 hour at room temperature (RT) with shaking. The blocking solution was flicked out and gently dried on a paper towel. 100 μl of primary antibody diluted in PBS containing 10% blocking solution was added to each well and the plate was incubated at RT for 1 hour with shaking. The plate was washed with 5-10× in TBS, pH 7.5+0.05% Tween 20. 100 μl of secondary antibodies (each diluted 1-2,000-fold in PBS) was added to each well and the plate was incubate at RT for 1 hour with shaking. The plate was washed with 5-10× in TBS, pH 7.5+0.05% Tween 20. 100 μl Streptavidin-Europium reagent (1-1,000-fold dilution) was added (100 μL/well) and the plate was incubated at room temperature for 45 minutes with shaking. The plate was washed 5-10× in TBS, pH 7.5+0.05% Tween 20. 120 μl Enhance Solution was added and the plate was incubated at room temperature for 15-30 minutes with shaking. The plate was read on a Victor TRF plate reader (Europium program).

[6] = target: T2, human Aβ42 fibrils; assay: ELISA, fibrils dried on plate, europium TRF
Experimental: as §3, §4

[7] = target: T4, human Aβ40 monomer (human); assay: ELISA, monomer coated on plate, europium TRF
T4 construct: also called soluble Aβ40
T4 sequence (peptide, as listed by the source): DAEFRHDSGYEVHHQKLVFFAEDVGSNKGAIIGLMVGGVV
Experimental: (§5) The same techniques were used for the coating of the microtiter plate for monomer ELISA. The fibrils Aβ monomer were diluted to 2.5 μg/ml in Coating buffer and mixed thoroughly. The solution was aliquoted into the wells of a microtiter plate [Immulon-2; VWR; Cat.# 62404-972] at 100 μl per well. The plate was sealed and incubated overnight at 4° C. The plate was washed 5-10× to remove Aβ coating solution prior to starting the assay.
as §4

[8] = target: T5, human Aβ42 monomer (human); assay: ELISA, monomer coated on plate, europium TRF
T5 construct: also called soluble Aβ42; monomeric Aβ42
Experimental: as §5, §4

[9] = target: T1, human Aβ40 fibrils; assay: BIAcore, fibrils immobilized, antibody injected (avidity)
Experimental: as §1, §2

[10] = target: T2, human Aβ42 fibrils; assay: as above
Experimental: as §1, §2

[11] = target: T4, human Aβ40 monomer; assay: BIAcore, antibody captured on protein G, Aβ monomer injected
Experimental: as §1
(§6) Kinetic analysis of Aβ monomers binding to protein G captured antibodies: The kinetic analysis of the interaction between Aβ monomers and antibodies was performed as follows: Antibodies to be tested were diluted in PBS+0.005% P-20+0.1 mg/mL BSA and injected over the immobilized protein G Fc surface. Aβ monomers were diluted in PBS+0.005% P-20+0.1 mg/mL BSA from 1000 nM to 2 nM, and each concentration was injected over the captured antibody surfaces.

[12] = target: T5, human Aβ42 monomer; assay: as above
Experimental: as §1, §6

Row | koff [1] [s⁻¹] | koff [2] [s⁻¹] | EC50 [5] [pM] | EC50 [6] [pM] | EC50 [7] [pM] | EC50 [8] [pM] | Kd [9] [pM] | koff [9] [s⁻¹] | kon [9] [M⁻¹ s⁻¹] | Kd [10] [pM] | koff [10] [s⁻¹] | kon [10] [M⁻¹ s⁻¹] | Kd [11] [pM] | Kd [12] [pM] | also measured | Binder
1 | 0.00096 | 0.0011 | – | – | – | – | – | – | – | – | – | – | – | – | – | antibody 1.15 (antibody, V domains shown, Human anti-Aβ antibody) VH: not shown VL: DVVMTQSPFSLPVTLGQPASISCRSSQSLVYSDGNTSLNWFQQRPGQSPRRLIYKVSKWDSGVPDRFSGSGSGTDFTLKISRVEAEDVGVYYCMQGTHWPRGFTFGPGTKVDIK
2 | 8.2e-05 | 0.00021 | – | – | – | – | – | – | – | – | – | – | – | – | – | antibody 7.28 (antibody, V domains shown, Human anti-Aβ antibody; also called Ab 7.28) VH: not shown VL: QSVLTQPPSVSAAPGQKVTISCSGSSSNIGNNYVFWYQQLPGTAPKLLIYDNNKRPSGIPDRFSGSKSGTSATLGITGLQTGDEADYYCGTWDSSLSAGVFGGGTKVTAL
3 | 0.005 | 0.0021 | – | – | – | – | – | – | – | – | – | – | – | – | – | antibody 6.27 (antibody, V domains shown, Human anti-Aβ antibody; also called Ab 6.27) VH: QVQLQESGPGLVKPSKTLSLTCTVSGGSISSYYWSWIRQPAGKGLEWIGRIYTSGSTNLNPSLKSRVTMSIDTSKSQFSLKLSSVTAADTAVYYCARLELRNYYYGMDVWGQGTTVTVSS VL: not shown
4 | – | – | 90 | 71 | 615 | 52 | 100 | 0.00042 | 3.8e+06 | 2900 | 0.0005 | 170000 | > 200000 | > 20000 | EC50 of ex vivo phagocytosis [3]: 2 µg/mL; binding result [4]: binds | antibody 1.7 (antibody, V domains shown, Human antibody from a Xenomouse hybridoma (IgG1 or IgG4 strains); also called Ab 1.7; human antibody 1.7) VH: QVTLKESGPVLVKPTETLTLTCTVSGFSLSNARMSVSWIRQPPGKALEWLAHIFSNDEKSYSTSLKSRLTISKDTSKSQVVLTMTNMDPVDTATYYCARIRGTVGFDYWGQGTLVTVSS VL: not shown
5 | – | – | 133 | 82 | 54 | 45 | 20 | 8.1e-05 | 4.2e+06 | 800 | 0.00016 | 200000 | 117000 | 16000 | koff [11]: 0.015 s⁻¹; kon [11]: 130000 M⁻¹ s⁻¹; koff [12]: 0.0039 s⁻¹; kon [12]: 240000 M⁻¹ s⁻¹ | antibody 1.1 (antibody, human IgG1, kappa, V domains shown, also called Ab 1.1; human antibody 1.1) VH: QVTLKESGPVLVKPTETLTLTCTVSGFSLSNARMSVSWIRQPPGKALEWLAHIFSNDEKSYSTSLKSRLTISKDTSKSQVVLTMTNMDPVDTATYYCARIRGTVGYDYWGQGTLVTVSS VL: not shown
6 | 0.0013 | 0.00087 | – | – | – | – | – | – | – | – | – | – | – | – | – | antibody 1.14 (antibody, V domains shown, Human anti-Aβ antibody) VH: EVQLVESGGGLVQPGGSLRLSCAASGFTFSSYSMNWVRQAPGKGLEWVSYISRSSSAIYYADSVKGRFTISRDNAKNSLYLQMNSLRDEDTAVYYCARETTVTTRFYYYYYGVDVWGQGTTVTVSS VL: DIQMTQSPSSVSASVGDRVTITCRASQGISSWLAWFQQKPGKAPKLLIYAASSLQSGVPSRFSGSGSGTDFTLTISSLQPEDFATYYCQQANSFPRTFGQGTKVEIK
7 | 0.004 | 0.0026 | – | – | – | – | – | – | – | – | – | – | – | – | – | antibody 6.18 (antibody, V domains shown, Human anti-Aβ antibody; also called Ab 6.18) VH: EVQLVESGGGLVQPGGSLRLSCAASGFTFSSYSMNWVRQAPGKGLEWLSYISSRSSTIYYADSVKGRFTISRDNAKNSLYLQMNSLRDEDTAVYYCARERTGTTRYYYYYYGMDVWGQGTTVTVSS VL: DIQMTQSPSSVSASVGDRVTITCRASQGISSWLAWSQQKPGKAPKLLIYAASSLQSGVPSRFSGSGSGTDFTLTISSLQPEDFATYYCQQANSFPRTFGQGTKVEIK
8 | 0.0008 | 0.00049 | – | – | – | – | – | – | – | – | – | – | – | – | – | antibody 7.11 (antibody, V domains shown, Human anti-Aβ antibody; also called Ab 7.11) VH: QLQLQESGPGLVKPSETLSLTCTVSGGSISSSRYYWGWIRQPPGKGLEWIGSISYRGNTYYYPSLKSRVTISVDTSKNQFSLKLNSVTAADTAVYYCARRTYSSGWSYFDYWGQGTLVTVSS VL: SYELTQPYSMSVATAQMARITCGGNNIGSKAVHWYQQKPGQDPVLVIYSDSNRPSGIPERFSGSNPGNTATLTISRIEAGDEANYYCQVWDSSSDHWVFGGGTKLTVL
9 | – | – | 115 | 86 | 689 | 56 | 60 | 0.00017 | 2.9e+06 | 1700 | 0.00019 | 170000 | > 200000 | 14000 | binding result [4]: binds; koff [12]: 0.0011 s⁻¹; kon [12]: 78000 M⁻¹ s⁻¹ | antibody 1.2 (antibody, human IgG1, kappa, V domains shown, also called Ab 1.2; human antibody 1.2) VH: QVTLKESGPVLLKPTETLTLTCTVSGFSLSNARMGVSWIRQPPGKALEWLAHIFSNDEKSYITSLKSRLTISKDTSKSQVVLTMTNMDPVDTATYYCARIPLRSPGAFDIWGQGTMVTVSS VL: DIVMTQTPLSSPVTLGQPASISCRSSQSLVHSDGNTYLNWLQQRPGQPPRLLIYKISNRFSGVPDRFTGSGAGTDFTLKISRVEAEDVGVYTCMQVTQFPLTFGQGTRLEIKR
10 | – | – | 195 | 96 | 42 | 37 | 30 | 0.00017 | 5.3e+06 | 1800 | 0.00019 | 110000 | > 200000 | 47000 | koff [12]: 0.0029 s⁻¹; kon [12]: 61000 M⁻¹ s⁻¹ | antibody 1.9 (antibody, human IgG1, kappa, V domains shown, also called Ab 1.9; human antibody 1.9) VH: QVTLKESGPVLVKPTETLTLTCTVSGFSLSNARMGVSWIRQPPGKALEWLAHIFSNDEKSYSTSLKSRLTISKDTFKSQVVLTMTNMDPVDTATYYCARIPLRSPGAFDIWGQGTMVTVSS VL: EIVMTQTPLSSPVTLGQPASISCRSSQSLVHSDRNTYLSWLQQRPGQPPRLLIYKISNRFSGVPDRFSGSGAGTDFTLKISRVEAEDVGVYYCMQTTQLPLTFGQGARLEIKR
11 | 0.00014 | 0.00029 | – | – | – | – | – | – | – | – | – | – | – | – | – | antibody 7.2 (antibody, V domains shown, Human anti-Aβ antibody; also called Ab 7.2) VH: QVQLVESGGGVVQPGRSLRLSCAASGFTFSSYGMHWVRQAPGKGLEWVAVIWYDGSNKYYADSVKGRFTISRDISKNTLYLQMNSLRAEDTAVYYCARSGPPLYSGIYYYYGMDVWGQGTTVTVSS VL: SSELTQDPAVSVALGQTVRITCQGDSLRAYYAHWYQQKPGQAPVLVIYGKNNRPSGIPDRFSGSNSGNTASLTITGAQAEDEADYYCNSRDSSGNHVVFGGGTKLTVL
